Laboratory results: patent US7964598B2 (The J. David Gladstone Institutes, priority 1995, dated 2011)

Test system: apoE4-expressing Neuro-2a cells
Experiment: Neurite outgrowth, apoE4-expressing Neuro-2a cells
Assay type: cell-based, mouse
Conditions: in the presence of β-VLDL
Method: Cells were grown in DME/F12 containing 10% FBS and G418 (400 μg/ml). On the day the experiment was initiated, the cells were subcultured into 35 mm plates in DME/F12 with 10% FBS. The cells were allowed to adhere to the plastic plates for 2 hr at 37° C., and then the culture medium was changed to N2 medium with or without increasing concentrations of lipoproteins. After 48 hr at 37° C., the media were replaced with the same medium (with or without lipoproteins), and the incubation was continued for an additional 48 hr. […] Neurons were imaged in fluorescence mode with a confocal laser scanning system (MRC-600, BioRad, Hercules, Calif.), and the images were digitized with an Image-1/AT image analysis system (Universal Images, West Chester, Pa.). The neuronal images were coded before characterization, and the following variables were measured: 1) number of neurites (defined as cell surface projections at least one-half the cell diameter) on each neuron; 2) neurite branching (the number of branch points on each neurite); and 3) neurite extension (the length of the longest neurite, measured from the cell body). Typically, in each experiment the neurites of 20 to 40 neurons per plate were measured and the results preserved as the mean±S.E.M. […]

B1: lactoferrin: blocks binding of lipoproteins to both HSPG and LRP (protein, UniProt P02788 20-710, looked up)
Lactotransferrin: GRRRSVQWCAVSQPEATKCFQWQRNMRKVRGPPVSCIKRDSPIQCIQAIAENRADAVTLDGGFIYEAGLAPYKLRPVAAEVYGTERQPRTHYYAVAVVKKGGSFQLNELQGLKSCHTGLRRTAGWNVPIGTLRPFLNWTGPPEPIEAAVARFFSASCVPGADKGQFPNLCRLCAGTGENKCAFSSQEPYFSYSGAFKCLRDGAGDVAFIRESTVFEDLSDEAERDEYELLCPDNTRKPVDKFKDCHLARVPSHAVVARSVNGKEDAIWNLLRQAQEKFGKDKSPKFQLFGSPSGQKDLLFKDSAIGFSRVPPRIDSGLYLGSGYFTAIQNLRKSEEEVAARRARVVWCAVGEQELRKCNQWSGLSEGSVTCSSASTTEDCIALVLKGEADAMSLDGGYVYTAGKCGLVPVLAENYKSQQSSDPDPNCVDRPVEGYLAVAVVRRSDTSLTWNSVKGKKSCHTAVDRTAGWNIPMGLLFNQTGSCKFDEYFSQSCAPGSDPRSNLCALCIGDEQGENKCVPNSNERYYGYTGAFRCLAENAGDVAFVKDVTVLQNTDGNNNEAWAKDLKLADFALLCLDGKRKPVTEARSCHLAMAPNHAVVSRMDKVERLKQVLLHQQAKFGRNGSDCPDKFCLFQSETKNLLFNDNTECLARLHGKTTYEKYLGPQYVAGITNLKKCSTSPLLEACEFLRK
  inhibition of neurite extension seen in the apoE4-expressing cells: blocked the effects of apoE3 and apoE4 on neurite outgrowth
